Target: T1, recombinant human full length Fzd7 (human, UniProt O75084 33-574)
T1 construct: Frizzled 7 (Fzd7), human, recombinant full length; also called full-length recombinant Fzd7; source: recombinant
Assay: co-IP; recombinant human full length Fzd7 mixed in lysis buffer at 1:1 ratio with recombinant human full-length ILK, incubated overnight at 4 °C with anti-Fzd7 Ab; Western blot for ILK and Fzd7
Details: both partners purified

B1: recombinant human full-length ILK (enzyme, UniProt Q13418 1-452, looked up)
chain: MDDIFTQCREGNAVAVRLWLDNTENDLNQGDDHGFSPLHWACREGRSAVVEMLIMRGARINVMNRGDDTPLHLAASHGHRDIVQKLLQYKADINAVNEHGNVPLHYACFWGQDQVAEDLVANGALVSICNKYGEMPVDKAKAPLRELLRERAEKMGQNLNRIPYKDTFWKGTTRTRPRNGTLNKHSGIDFKQLNFLTKLNENHSGELWKGRWQGNDIVVKVLKVRDWSTRKSRDFNEECPRLRIFSHPNVLPVLGACQSPPAPHPTLITHWMPYGSLYNVLHEGTNFVVDQSQAVKFALDMARGMAFLHTLEPLIPRHALNSRSVMIDEDMTARISMADVKFSFQCPGRMYAPAWVAPEALQKKPEDTNRRSADMWSFAVLLWELVTREVPFADLSNMEIGMKVALEGLRPTIPPGISPHVCKLMKICMNEDPAKRPKFDMIVPILEKMQDK
notes: Integrin-linked kinase (ILK), human, recombinant full length; also called full-length recombinant ILK; source: recombinant
binding result: binds

From publication PMC11143768, “Integrin-linked kinase-frizzled 7 interaction maintains cancer stem cells to drive platinum resistance in ovarian cancer” (Journal of Experimental & Clinical Cancer Research : CR, 2024)
